# In PMC2666983:
# T1: Ci-FoxA-a (Ci-Fkh/HNF-3beta) (Ciona intestinalis, UniProt Q4H3J7 131-225)
# T1 sequence: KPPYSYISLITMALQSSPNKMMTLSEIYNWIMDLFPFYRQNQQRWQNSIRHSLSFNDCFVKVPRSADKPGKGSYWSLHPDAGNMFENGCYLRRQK
# B1: 27-52 Fox (distal) (dsDNA)
# DNA 1: CTACACCCATATTTGAAGACCAAA
# DNA 2: TTTGGTCTTCAAATATGGGTGTAG
# Target: T1, Ci-FoxA-a (Ci-Fkh/HNF-3beta)
# Assay: competition
binder,measurement,value
B1,binding result,binds
